# In patent US20240026407A1, “MODIFICATION OF SAPONINS” (GLAXOSMITHKLINE BIOLOGICALS SA, priority 2020, published 2024):
# B1: Variant R2: engineered rhamnosidase polypeptide, variant of Kribbella flavida rhamnosidase SEQ ID No. 1017 (protein)
# chain: MSFPAAPARLRFEHRTDPGPVLGIGTATPRLSWQVPTAPDDYRQAGYEVEIARGDAAPEQYTVDSADQVLVPWPGTPLAARESATVRVRVRGDGDWSQWSDPATVEAGLLSADDWTARFVSPRENAGHEAPAPLIGGVIDLPPDIAQARLYATAHGIYEPTLNGTRVGDEQLAPGWTAYEQRLRYQTYDVTDLVAPGENRLELLVGNGWYRGRMGFHGGHSLYGDRLAVLAQLEVTTATGEVKVLASDGTWTTRETNVLADDLYDGQHVDLRRTLGEPGPVDVLDADLSLLVAPDGPPVRVTDVLPAKAVTTSPAGKTLVDFGQNVVGRLRLRVRGGAAGDEIVLRHAEVLEDGELGVRPLRTAKATDSFVLAGPDEVTLEPTLTFHGFRYAEITGVPDLRAEDVEAVVVGSDLRRTGWFESSHPLLDRFHENVVWGMRGNFLDVPTDCPQRDERLGWTGDIQVFSPTASFLFDTAGFLTNWLADLIAEQHKDGSVPFVVPDVLRQPGPATAAWGDAATIVPWVLYERTGDAGLLARQLPSMRAWVDRMAGLAGDDLLWVGGFQFGDWLDPTAPPDDPFRAKADPDVLATAHLARSAEVVALAAEVVGAGELAREYAELAARVRQAFAAEYTTGSGRVLSDAATNYALALQWALLPTEAQRKRAGERLADLVRTAGFRISTGFVGTPLMADALADSGHPDLAYRLLLETGCPSWLYAVTMDATTVWERWDSMLPDGSINPGQMTSFNHYALGAVADWMHRRVAGLAPGDPGYRRIVVDPLFTAHLTKASARHLTPYGEAAVAWSRSGGRVRLEVTVPVGARARVAVPGESAPVEVGHGTHEWTADDVYGETPPLPADATIRQLIDHEPSWTTLAAAATRTGIVADDAELAGRLERYLDHPATELVDAVSPRGFSPSAEALHAELDSVLGR
# modifications: Seq ID No. 1017 with mutations A143P, L214M, K219G, Q921H
# Columns and labels:
# [1] = Example 9: screening of rhamnosidase variants for derhamnosylation of saponins in crude bark extract; format: biochemical, Quillaja saponaria
# Method: Libraries of genetic variants encoding mutations in the wild type Kribbella flavida rhamnosidase (SEQ ID No. 1017) were prepared using molecular biology techniques, enzymes were prepared linked to a C-terminally located His-tag. Single monoclonal colonies were grown in 400 ul of expression medium and protein expressed. Cell pellets were lysed in 200 ul of the relevant buffer (Table 17).
# Lysate was diluted appropriately in the relevant buffer to allow a lysate loading of the indicated % loading (1% loading corresponds to use of 2 ul original lysate in a 200 ul reaction).
# Crude bark extract (CBE) obtained by aqueous extraction of Quillaja saponaria and containing at least 2.80 mg/ml QS-21 (by HPLC-UV) was adjusted to pH 6 by dropwise addition of 2M NaOH with stirring. The relevant concentration of the relevant glucosidase was added. The appropriate relative volume of pH 6 CBE (160 ul (for 80%) or 150 ul (for 75%)) was added to each well of the reaction plate. The reaction plate was sealed and incubated at the relevant temperature and time.
# The reaction plate was quenched by adding 200 uL of MeCN (2% AcOH, 1 mg/mL hexanophenone) to each well of the plates. The quenched reaction plate was re-sealed and incubated at 20 deg C. with shaking for 10 min. The reaction plate was then centrifuged (10 min, 4 degC).
# 200 uL was transferred from each well of the quenched plate to the corresponding wells of a fresh 96 well plate and sealed. The plate was analysed by UV HPLC with the method described in Example 4.
# Three key peaks of interest are apparent using this chromatography: Left Peak (retention time approximately 2.30-2.35 min) comprising mainly QS-17 family components; Middle Peak (retention time approximately 2.37-2.42 min) comprising mainly QS-18 family components and desglucosyl-QS-17 family components; and Right Peak (retention time approximately 2.44-2.50 min) comprising mainly QS-21 family components. Peak identity was supported by MS/MS.
# Enzyme activity is calculated as the % conversion of the Left Peak present in the crude bark extract: […]
# [2] = Example 10: derhamnosylation of saponins in crude bark extract (50%) using WT and engineered rhamnosidases R1 to R5; format: biochemical, Quillaja saponaria; settings: 7 h, 50% CBE, 35 degC; for % Right Peak: starting CBE 26; for % Left Peak: starting CBE 30; for % Middle Peak: starting CBE 44
# Method: Lyophilised powders from clarified cell lysate expressing glucosidases (from Example 8 WT glucosidase and engineered glucosidase polypeptides G1 to G5) and rhamnosidases (from Example 9 WT rhamnosidase and engineered rhamnosidase polypeptides R1 to R5) were dissolved in 200 mM sodium acetate aqueous solution at pH 5.8 to prepare the enzyme solutions at 4 fold the final reaction concentration as shown in Tables 19 and 20.
# Each rhamnosidase solution was combined with an equal volume of 200 mM sodium acetate aqueous solution at pH 5.8 and separately with an equal volume of 200 mM sodium acetate aqueous solution at pH 5.8 containing 2 mg/ml glucosidase G5. This is a sufficient loading of glucosidase to effect complete hydrolysis of the relevant glucose moiety within 4 hours.
# CBE was adjusted to pH of 6.0 to 6.2 with 2M sodium hydroxide and an equal volume added to the enzyme solution to prepare the reaction mix (i.e. 50% CBE concentration in reaction mix) and the concentration of glucosidase and/or rhamnosidase is shown in Tables 19 and 20. The reaction mix was heated to 35 degC for the time indicated in Tables 19 and 20, after which the reaction was quenched by addition of an equal volume of MeCN containing 2% acetic acid and shaken at room temperature for 10 mins prior to centrifugation (10 min, 4 degC) to remove particulates. Samples were analysed by UV HPLC using method of Experiment 4-4.
# The change in composition of the Left, Middle and Right peaks is shown in Tables 19 and 20. The composition changes by the action of the enzymes depending on the presence or absence of the partner enzyme. The extent of reaction is proportional to the enzyme concentration and the reaction time under these conditions. The tables show data for enzyme concentrations and the reaction times providing for equivalent extents of reaction. The improvement resulting from the mutations introduced for each variant is equal to the fold change in enzyme concentration×time (i.e. fold improvement=(enzyme concentration×time) for preceding variant÷(enzyme concentration×time) for later variant). A cumulative fold improvement over the original enzyme variant is calculated by the product of the individual fold improvements.
# [3] = rhamnosidase 1.25 mg/ml + glucosidase G5 0.5 mg/ml
# [4] = rhamnosidase 1.25 mg/ml, no glucosidase
molecule,measurement,setting,value
B1,% conversion (Right peak/Left Peak) (−neg control),"[1]; R2 round: 20 deg C, 20 h, lysate 1.25% v/v, CBE 80% v/v, 100 mM Potassium phosphate pH 6",1.09%
same,Cumulative FIOP from WT,"[1]; R2 round: 20 deg C, 20 h, lysate 1.25% v/v, CBE 80% v/v, 100 mM Potassium phosphate pH 6, estimate",2.9
same,Left Peak %,"[1]; R2 round: 20 deg C, 20 h, lysate 1.25% v/v, CBE 80% v/v, 100 mM Potassium phosphate pH 6, negative control 23.63",22.76%
same,Right Peak %,"[1]; R2 round: 20 deg C, 20 h, lysate 1.25% v/v, CBE 80% v/v, 100 mM Potassium phosphate pH 6, negative control 26.10",26.27%
same,Middle Peak %,"[1]; R2 round: 20 deg C, 20 h, lysate 1.25% v/v, CBE 80% v/v, 100 mM Potassium phosphate pH 6, negative control 50.27",50.97%
same,% conversion (Right peak/Left Peak),"[1]; R2 round: 20 deg C, 20 h, lysate 1.25% v/v, CBE 80% v/v, 100 mM Potassium phosphate pH 6, negative control 52.49",53.57%
same,FIOP (% area increase variant/pos control),"[1]; R2 round: 20 deg C, 20 h, lysate 1.25% v/v, CBE 80% v/v, 100 mM Potassium phosphate pH 6, positive control WT",2.9
same,% conversion (Right peak/Left Peak) (−neg control),"[1]; R3 round: 35 deg C, 18 h, lysate 0.4% v/v, CBE 75% v/v, 100 mM Sodium acetate pH 5.8",3.99%
same,Right Peak %,"[1]; R3 round: 35 deg C, 18 h, lysate 0.4% v/v, CBE 75% v/v, 100 mM Sodium acetate pH 5.8, negative control 26.60",27.59%
same,Left Peak %,"[1]; R3 round: 35 deg C, 18 h, lysate 0.4% v/v, CBE 75% v/v, 100 mM Sodium acetate pH 5.8, negative control 28.91",25.57%
same,Middle Peak %,"[1]; R3 round: 35 deg C, 18 h, lysate 0.4% v/v, CBE 75% v/v, 100 mM Sodium acetate pH 5.8, negative control 44.49",46.84%
same,% conversion (Right peak/Left Peak),"[1]; R3 round: 35 deg C, 18 h, lysate 0.4% v/v, CBE 75% v/v, 100 mM Sodium acetate pH 5.8, negative control 47.91",51.90%
same,% change in Left Peak,[2]; [3],−40%
same,% change in Middle Peak,[2]; [3],−96%
same,% change in Right Peak,[2]; [3],309%
same,Cumulative Fold improvement in primary enzyme loading × time,[2]; [3],4
same,Fold improvement in primary enzyme loading × time,[2]; [3],2.0
same,% Right Peak,[2]; [3],80%
same,% Left Peak,[2]; [3],18%
same,% Middle Peak,[2]; [3],2%
same,% change in Left Peak,[2]; [4],−39%
same,% change in Middle Peak,[2]; [4],19%
same,% change in Right Peak,[2]; [4],113%
same,Cumulative Fold improvement in primary enzyme loading × time,[2]; [4],4
same,Fold improvement in primary enzyme loading × time,[2]; [4],2.0
same,% Right Peak,[2]; [4],29%
same,% Left Peak,[2]; [4],18%
same,% Middle Peak,[2]; [4],52%
